Assay results reported in publication PMC4351203.

Tests used:
Conditions in all cases: reference: wild type; sites Y554
[1] = target: paxillin (endogenous, HEK293T) (UniProt P49023); test: anti-FLAG IP, FLAG-peptide elution, Western blot
[2] = target: Hic-5 (endogenous, HEK293T) (UniProt O43294); test: anti-FLAG IP, FLAG-peptide elution, Western blot
Hic-5 (Myc-tagged) = Hic-5 (Myc-tagged) (UniProt Q62219); test: anti-FLAG co-IP, anti-Myc blot
[3] = target: paxillin (Myc-tagged; endogenous in mouse brain) (UniProt Q8VI36); test: anti-FLAG co-IP, anti-Myc blot

Measured: binding against the reference

Git1 (FLAG-, YFP-tagged, transfected) (from UniProt Q9Z272) Y554F
stronger: all assays above
